In patent publication US20150182631A1, “SYSTEM FOR […]-BASED ACTIVE INGREDIENTS” (Centre National De La Recherche Scientifique-CNRS, priority 2012, published 2015):

How the values were obtained:
[1] = Balanced FRET, exchange of monomers; format: physicochemical; details: 1 h incubation, pH 8.5
Description: Fluorescence energy transfer was used to reveal the exchange of the XCL monomers. The exchange reaction is initiated by mixing the same volume of XCL-RITC (1 μM or only the buffer as a reference) and of XCL-FITC (1 μM) at 25° C. in 50 mM of phosphate buffer, 100 mM NaCl, pH 8.5. After one hour of incubation, the emission spectrum of the sample excited at 490 nm is recorded by spectrofluorimetry (Photon Technology International QM-4). The same experiments were carried out with A38C-RITC and A38C-FITC.
The oligomerization balance of the XCL protein was characterised by the measurement of the appearance of resonance energy transfer of the Förster type (FRET) between two populations of XCL labelled separately either with FITC (Fluorescein IsoThioCyanate) or with RITC (Rhodamine IsoThioCyanate).
In this same figure, is also shown the spectrum obtained by mixing the labelled protein, either by the donor or by the acceptor (dotted line curve). This spectrum was deconvoluted, which gives the spectra shown as a dotted line in FIG. 2A.
For the purposes of comparison, the same experiment was carried out with the variant A38C. This variant is covalently bonded by two additional disulphide bridges. A perfectly superimposable spectrum was obtained after mixing donor and acceptor labelled proteins and incubation of this mixture for 1 h at ambient temperature (dotted lines of FIG. 3B).

[2] = Confinement of fluorescein in the lectin cavity; details: 4 days at ambient temperature, free fluorescein eliminated again
Description: The confinement experiments are carried out by incubating the wild-type protein (XCL) or the mutants (A38C) with the molecule to be tested. In order to carry out the control experiments with the mutant A38C, an oxidation step is carried out in the presence of GSSG in a phosphate buffer 50 mM, 100 mM NaCl, pH 7.2, OVN. The GSSG is then eliminated on a PD-10 sephadex G-25M column (GE Healthcare) pre-balanced in a phosphate buffer 50 mM, 100 mM NaCl, pH 8.5. The eluate is concentred at 1 ml on Vivaspin 15R 30,000 MWCO (Sartorius stedim). A batch of A38C is reduced to TCEP (under argon) with adding of NaOH for a final pH of 8.5. […] The quantity of fluorescein is measured by using an absorption coefficient of e511 nm=75,000 cm^−1 M^−1. The concentrations of XCL and of A38C after the confinement are calculated with e278 nm=[…]. The percentage of confinement is calculated by forming the ratio of the fluorescein/protein concentrations.
In the case with XCL, the inventors incubated the protein (15 μM) with fluorescein (10 mM) and then separated the protein from the non-confined molecules of fluorescein by two successive gel filtration columns. Beforehand, the inventors verified that if these two columns on the fluorescein solution are carried out at 10 mM, no residual free fluorescein is detected. […]

[3] = FRET kinetics of subunit exchange (tetramer dissociation); format: physicochemical
Description: The speed of the exchange of subunits was measured by the same technique. The reaction is initiated by mixing the same volume of XCL-RITC (1 μM) and of XCL-FITC (1 μM) at 25° C. in 50 mM of phosphate buffer, 100 mM NaCl, pH 8.5. The excitation is carried out at 468 nm and the fluorescence emission at 580 nm is recorded every 0.5 seconds. The fluorescence intensity is normalised by using the equation: […]
where F(t) represents the experimental fluorescence in the time considered, F0 the value of the initial fluorescence, and F∞ the value of the final fluorescence when the state of equilibrium is reached. The kinetic data was modelled with the GOSA software (Czaplicki et al. (2006)). The best model was obtained for a double exponential of equation:
F=1−[a×e^−k^1^t+(1−a)×e^−k^2^t]
where: a represents the proportion of molecules at slow dissociation, k1 the kinetic constant of the slow dissociation and k2 the kinetic constant of the fast dissociation.
The dissociation kinetic of the tetramer was studied by mixing XCL-FITC and XCL-RITC and by measuring the fluorescence emission intensity at 580 nm as a function of time (FIG. 6).
The increase in the fluorescence intensity and therefore the effectiveness of the transfer between the fluorescein and the rhodamine are the result of two successive phenomena: firstly the dissociation of the tetramers into dimers and secondly their reassociation. Considering the shape of the curve (FIG. 6), no lag time is observed at the beginning of the kinetics which implies that the speed of reassociation is much faster than the speed of dissociation. It can therefore be considered that the speed of reassociation is negligible in this case. The kinetic data obtained was modelled using the GOSA software. The most suitable model for describing the phenomenon observed is a double exponential growth with two dissociation reactions that have difference speeds: […]

[4] = 25° C., pH 8.5, double exponential model

B1: XCL: Xerocomus chrysenteron lectin, fungal sporocarp lectin forming a tetramer with central cavity, SEQ ID NO: 1 (protein)
chain: MSYSITLRVYQTNRDRGYFSIVEKTVWHFANGGTWSEANGAHTLTQGGSGTSGVLRFLSTKGERITVAVGVHNYKRWCDVVTGLKPDETALVINPQYYNNGGRDYVREKQLAEYSVTSAIGTKVEVVYTVAEGNNLEANVIFS
modifications: Xerocomus chrysenteron
FRET between FITC- and RITC-labelled protein after mixing (monomer redistribution) [1]: monomers have been redistributed
confinement rate after incubation [2]: remained unchanged
a: proportion of molecules engaged in the slow reaction [3, 4]: 0.39
k1: kinetic constant of the slowest dissociation reaction [3, 4]: 0.72 min⁻¹
k2: kinetic constant of the fastest dissociation reaction [3, 4]: 2.52 min⁻¹
time until balance of fluorescence intensity at 580 nm is reached ([3]; mixing XCL-FITC and XCL-RITC): more than 300 seconds
